These are literature values, as cited in paper PMC5372734.

As a reminder, the Kd is the free concentration of one partner at which half of the binding sites on the other are occupied at equilibrium, for simple one-to-one binding.

Where two headings read alike, the source gives them in different places.

Series [1] concerns the target Factor XIIa (Homo sapiens) (UniProt P00748).
Series [2] shares this target. This is another data set of the same source.

Chain of UniProt P00748 (P00748 whole entry, looked up): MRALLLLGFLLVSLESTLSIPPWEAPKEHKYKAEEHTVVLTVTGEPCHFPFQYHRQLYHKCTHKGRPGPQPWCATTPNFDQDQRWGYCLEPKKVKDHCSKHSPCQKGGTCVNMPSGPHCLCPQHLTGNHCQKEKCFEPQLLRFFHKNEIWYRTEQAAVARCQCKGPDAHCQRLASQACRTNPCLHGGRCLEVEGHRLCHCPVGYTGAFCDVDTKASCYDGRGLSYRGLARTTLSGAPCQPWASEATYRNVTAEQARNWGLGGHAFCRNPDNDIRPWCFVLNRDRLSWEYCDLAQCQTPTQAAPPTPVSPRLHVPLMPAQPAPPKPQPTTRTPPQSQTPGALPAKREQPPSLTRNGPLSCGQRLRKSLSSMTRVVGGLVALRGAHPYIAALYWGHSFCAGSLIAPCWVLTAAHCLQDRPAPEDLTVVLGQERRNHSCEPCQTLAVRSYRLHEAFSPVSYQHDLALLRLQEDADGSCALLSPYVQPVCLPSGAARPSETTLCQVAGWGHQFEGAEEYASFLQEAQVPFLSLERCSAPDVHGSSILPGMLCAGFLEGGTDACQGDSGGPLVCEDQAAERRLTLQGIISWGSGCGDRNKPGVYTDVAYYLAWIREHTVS

As to “Histidine-rich glycoprotein (from UniProt P04196)”, the Kd was 1.6 nM in series [1] and 0.009 nM in series [2].
